# Assay results from the supplement of paper PMC9170038.
# System: MS2 coat protein
# Assay: apparent KD of MS2 coat protein; designed switch direction (-1 OFF switch, 1 ON switch): -1; higher = weaker reporter binding
# In short: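 Normalised cluster fluorescence was curve-fitted, and each design's median over clusters is its apparent KD. Before this, SNAP-549-labelled MS2 coat protein was titrated from 0.7 or 1.5 nM, doubling to 3 µM, over RNA switches transcribed on Illumina chips by stalled E. coli RNA polymerase. Titrations had no input, 200 uM small-molecule ligand, or an oligonucleotide input, and steps lasted 0.8–1.5 h (lowest) to 10–20 min (highest).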
# [1] = input ligand: microRNA oligo, concentration not stated
# [2] = Eterna round: R95, input ligand: microRNA oligo, concentration not stated
# [3] = Eterna round: R95, input ligand: FMN 200 uM
# [4] = Eterna round: R95, input ligand: none
Sequence,apparent KD of MS2 coat protein (input ligand: FMN 200 uM) [nM],apparent KD of MS2 coat protein [1] [nM],apparent KD of MS2 coat protein (input ligand: none) [nM],apparent KD of MS2 coat protein [2] [nM],apparent KD of MS2 coat protein [3] [nM],apparent KD of MS2 coat protein [4] [nM]
"GCACGGAGUGUAGGAUAUCUGUGCGAUUAGCUCAGAGAAGGACAUGAGGAUCACCCAUGUGUGUUCCAAUAAUAAAAUCCGUGC [Eli exng1 - 063] (Eterna round: R96, puzzle: Exclusion NG 1)",1500,270,329,–,–,–
"CAUCACUGUGUCAGGAUAUCAUUUGGACGUCUAAGUGAGAAGGGACAUGAGGAUCACCCAUGUGGAGCUGGCCA [Eternabot (L1) Solution 63] (Eterna round: R97, puzzle: Brourd's mod of Exclusion 4)",73.5,–,41.8,–,–,–
"UCGCUCCGUGUAGGAUAUCGCCGUAUGAUGCGGCGAGAAGGACAUGAGGAUCACCCAUGUAUGUUAUUAUCACGCGUGGCGCAA [Design 63] (Eterna round: R96, puzzle: Exclusion NG 1)",17.4,12,16.9,–,–,–
GGUGGACAUGAGGAUCACCCAUGUGAGGAUAUCGGCUGGUGCGUGGUGGCUGGCAUCUCGAGAAGGCACAUAGU [Exclusion 1 V67] (puzzle: Exclusion 1),–,–,–,70.5,–,–
"GCAGAGCAAGGAUAUACAUGAGGAUCACCCAUGUAAUCUGAAAGGAUUGUAUGGCUCUGUAGAAGGUGCGAAAA [Ederxein] (Eterna round: R97, puzzle: Exclusion 3)",41.9,–,22.7,–,–,–
"UCGCUCCGUGUAGGAUAUCGCCGUACUAUACGGCGAGAAGGACAUGAGGAUCACCCAUGUAUGUUAUUAUCACGCGUGGCGCAA [Design 60] (Eterna round: R96, puzzle: Exclusion NG 1)",21,11.5,22.2,–,–,–
"AGAUCACGAGGAUAUCCAGUGUAGUACAUGAGGAUCACCCAUGUUGAUCGUGGAUUCUUGGGAGAAGGCGUGGUUG [Eternabot (L2) Solution 100] (Eterna round: R97, puzzle: Exclusion 5)",237,–,60.6,–,–,–
GAUAGAGAGCAGGAUAUCUUAGAAAUGUAUUAUAGAGAAGGGCUCACAUGAGGAUCACCCAUGUGGUCCUAGAU [JL Dibiri mod 15] (puzzle: Exclusion 6),–,–,–,16,–,–
"AAUAAUGUAGGAUAUACAUGAGGAUCACCCAUGUCCCACCCGUUACCUAUGACCAUAUGUAGAAGGACAAAUAA [Exy#4] (Eterna round: R97, puzzle: Exclusion 3)",56.7,–,67.3,–,–,–
"AAGACUCGCAAUAAGAACAAGCACUCCGAACUAUAAGUAACAUGAGGAUCACCCAUGUCAAGGGUGCCAAAGUCAAA [JR_Sensorv2_tov2_Sub302] (Eterna round: R96, puzzle: Sensor v2, turn-off variant 2)",15.4,16,18.6,–,–,–
CCGAAUAUGUAGGAUAUCGUAUCGGAAACGAUACGAGAAGGACAAACAUGAGGAUCACCCAUGUUCCUUAACGG [Fiskers Ex 6 - 12] (puzzle: Exclusion 6),–,–,–,15.6,18.5,15
"ACACAGCGAGGAUAUACAUGAGGAUCACCCAUGUGGCGGCCGUUACGGUAGCGCUAGUGUAGAAGGCGCAUUGG [EX3 #36] (Eterna round: R97, puzzle: Exclusion 3)",65.8,–,94.2,–,–,–
"AACCUGAGGCAUAGCUUUAGGUUUACAUGAGGAUCACCCAUGUAGGAUAUGGUAGGCAUAGCUUACCAGAAGGACAUGAAAAUU [Mat - Exclusion NG 3 - Mod of JL - D30] (Eterna round: R96, puzzle: Exclusion NG 3)",417,47.9,55.6,–,–,–
CUUUUGUGAGGAUAUCAGUAGUAAAAUAAUAAAAUAACUACUGAGAAGGCACAUGAGGAUCACCCAUGUUCCUC [Mat - Exclusion 4 - Mod of Salish - D73] (puzzle: Exclusion 4),–,–,–,33.9,–,–
"UAUUUAGCAAGCAGAUCCUACAUGAGGAUCACCCAUGUGCUCUGAACGUACAGAAUUACUGUACGAGCUCGUCUUAU [Winner reversed engineered 29] (Eterna round: R97, puzzle: Sensor, turn-off variant 1)",166,–,198,–,–,–
CGGUACUGAGGAUAUACAUGAGGAUCACCCAUGUGUUCAAGCUAGCGUACUGGCAUUAGUAGAAGGCGGUGCUG [JL-ex3-3.21 Brourd mod] (puzzle: Exclusion 3),–,–,–,14.6,26.7,16.9
"GUGCCGCGAGGAUAUACAGACGGGUCCAUUACGUGUCUCGGACUUGAGGAUCACCCAAGUAGAAGGCGUUUCAG [salish99_ex2_r4_624] (Eterna round: R97, puzzle: Exclusion 2)",20.7,–,38.4,–,–,–

Sequence,apparent KD of MS2 coat protein (input ligand: FMN 200 uM) [nM],apparent KD of MS2 coat protein [1] [nM],apparent KD of MS2 coat protein (input ligand: none) [nM],apparent KD of MS2 coat protein [2] [nM],apparent KD of MS2 coat protein [3] [nM],apparent KD of MS2 coat protein [4] [nM]
UCUGGUCGGAAGGAUAUGGUCGGGUCAAAUCGUCCAGAAGGUCUGACAUGAGGAUCACCCAUGUGAGUCCAAAG [Ataesma] (puzzle: Exclusion 6),–,–,–,20.4,77.5,21.8
"UUGUAGGGAGGAUAUCAGAAGCUCCACAUGAGGAUCACCCAUGUAGCCGCUGCUGGAUUCUGAGAAGGCUUGGGUU [Eternabot (L2) Solution 8] (Eterna round: R97, puzzle: Exclusion 5)",58.8,–,58.3,–,–,–
"UACAUGAGGAUCACCCAUGUUUUGUCGUGUAUGGUAUUUAUCUAGGAUAUCAUGUUAUUUAUUUAUGAGAAGGAGAAUAUUAAU [JMF's solution 24] (Eterna round: R96, puzzle: Exclusion NG 3)",32.6,29.1,32.5,–,–,–
"AGAACACAUGAGGAUCACCCAUGUCAGGAUAUCGACUGAACAGCUUCGGCUGUUCAGUCGAGAAGGGACAAUUA [Brourdxlusion 6 - Jieux - Exclusion 1] (Eterna round: R97, puzzle: Exclusion 1)",120,–,55.8,–,–,–
"AUCGUGCAGCUUUGCUGUACGAGUACAUGAGGAUCACCCAUGUAGGAUAUGGUACGCUUUGCGUGCUAGAAGGAUAUGUGUUUG [EX ENG3 1.44] (Eterna round: R96, puzzle: Exclusion NG 3)",58.6,29.8,43.4,–,–,–
GGUUAUUGCAAGGAUAUGCUUUUUUUUGAAAUUGCAGAAGGUGCAACAUGAGGAUCACCCAUGUUGGAUGGGUU [JR_E6_Sub018] (puzzle: Exclusion 6),–,–,–,106,–,–
"AAACCUGCCCAUGACCGCAAGCUUUUCGCUUGUCUUACCACAUGAGGAUCACCCAUGUGACAUGGGCUCCUUAUAAA [Usorle] (puzzle: Sensor v3, turn-off variant 2)",–,–,–,11.8,14,11.4
"CGAAGUAGAAACCGAUCCUACAUGAGGAUCACCCAUGUAGCAAGACGUGCACGCGAAGCUCGUCAGACUACCAGAAC [salish99_TOv1_r3_013] (puzzle: Sensor v3, turn-off variant 1)",–,–,–,332,312,420
"GAUUAUGCGAGCUUUAGGGACAUGAGGAUCACCCAUGUUCGUCUUAUUGGUCUAGGUACGCUAACAUACCUAAAUCU [JMF 4] (puzzle: Sensor v3, turn-off variant 1)",–,–,–,37.4,22.6,23.4
"ACCUCACUUGAGGAUCACCCAAGUCAGGAUAUACUCGUUUGCCGCGCGACGCGGCAUUGUAGAAGGGACGGGCU [Orquisates] (Eterna round: R97, puzzle: Exclusion 1)",32,–,18.8,–,–,–
"UUUAUGUGAGGAUAUGCGGGCGGGCGUGAAAAUGUUUGUUUGUAGAAGGUACAUGAGGAUCACCCAUGUAGUGG [-22, -21.6 kcal, 24% A] (Eterna round: R97, puzzle: Exclusion 4)",180,–,57.2,–,–,–
"AAUCCUCUGCAGGAUAUCACUGGAUGAACCAGCUGAGAAGGGCGCACAUGAGGAUCACCCAUGUUGUAAGUAGC [Eternabot (L1) Solution 80] (Eterna round: R97, puzzle: Exclusion 6)",132,–,51.7,–,–,–
"AGCUGUGGCCGAGGAUAUCUAAUAUCCCUAACCGAAAUAUAAUCGGACAUGAGGAUCACCCAUGUAGAGAAGGCGGUCUCAGCA [Eli eng2 - 065] (Eterna round: R96, puzzle: Exclusion NG 2)",211,19.3,20.8,–,–,–
"GAAGAUCGAGUUAGGAUAUGAUUACUAUCCGAAAAUCAGAAGGAACUUGAGGAUCACCCAAGUUUAGAAGAAAU [JR_BMEx4_Sub052] (Eterna round: R97, puzzle: Brourd's mod of Exclusion 4)",18.2,–,14.7,–,–,–
"GAAAAGGUAGAGGAUAUUUCAGAUCAAAGCUGCAAAGAAGGCUGCACAUGAGGAUCACCCAUGUGGUCUUCAAA [Mod of Quesina 9 - Jieux - Exclusion 6] (Eterna round: R97, puzzle: Exclusion 6)",121,–,19.7,–,–,–
"UGUUGUUACGUAGGAUAUCCACCAACAGGUGGAAGGAUAUGGAAACAGAAGGUUCGCCAACAGGCGGAGAAGGACGUGUUAACU [pwkr exNG2 2xF7 2xFMN.23] (Eterna round: R96, puzzle: Exclusion NG 2)",2.79,3780,288,–,–,–
